# T1: Bovine, dephosphorylated, Myelin Basic Protein (MBP), P02687
# T1 chain: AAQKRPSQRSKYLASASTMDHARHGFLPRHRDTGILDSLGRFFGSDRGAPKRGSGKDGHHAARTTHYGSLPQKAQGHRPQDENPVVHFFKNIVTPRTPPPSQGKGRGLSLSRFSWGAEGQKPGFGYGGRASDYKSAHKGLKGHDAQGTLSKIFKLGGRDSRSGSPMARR
# B1: MINK1 (protein)
# chain: MGDPAPARSLDDIDLSALRDPAGIFELVEVVGNGTYGQVYKGRHVKTGQLAAIKVMDVTEDEEEEIKQEINMLKKYSHHRNIATYYGAFIKKSPPGNDDQLWLVMEFCGAGSVTDLVKNTKGNALKEDCIAYICREILRGLAHLHAHKVIHRDIKGQNVLLTENAEVKLVDFGVSAQLDRTVGRRNTFIGTPYWMAPEVIACDENPDATYDYRSDIWSLGITAIEMAEGAPPLCDMHPMRALFLIPRNPPPRLKSKKWSKKFIDFIDTCLIKTYLSRPPTEQLLKFPFIRDQPTERQVRIQLKDHIDRSRKKRGEKEETE
# B2: EPHA8 (protein)
# chain: KKRHCGYSKAFQDSDEEKMHYQNGQAPPPVFLPLHHPPGKLPEPQFYAEPHTYEEPGRAGRSFTREIEASRIHIEKIIGSGDSGEVCYGRLRVPGQRDVPVAIKALKAGYTERQRRDFLSEASIMGQFDHPNIIRLEGVVTRGRLAMIVTEYMENGSLDTFLRTHDGQFTIMQLVGMLRGVGAGMRYLSDLGYVHRDLAARNVLVDSNLVCKVSDFGLSRVLEDDPDAAYTTTGGKIPIRWTAPEAIAFRTFSSASDVWSFGVVMWEVLAYGERPYWNMTNRDVISSVEEGYRLPAPMGCPHALHQLMLDCWHKDRAQRPRFSQIVSVLDALIRSPESLRATATVSRCPPPAFVRSCFDLRGGSGGGGGLTVGDWLDSIRMGRYRDHFAAGGYSSLGMVLRMNAQDVRALGITLMGHQKKILGSIQTMRAQLTSTQGPRRHL
# B3: MAPKAPK3 (protein)
# chain: MDGETAEEQGGPVPPPVAPGGPGLGGAPGGRREPKKYAVTDDYQLSKQVLGLGVNGKVLECFHRRTGQKCALKLLYDSPKARQEVDHHWQASGGPHIVCILDVYENMHHGKRCLLIIMECMEGGELFSRIQERGDQAFTEREAAEIMRDIGTAIQFLHSHNIAHRDVKPENLLYTSKEKDAVLKLTDFGFAKETTQNALQTPCYTPYYVAPEVLGPEKYDKSCDMWSLGVIMYILLCGFPPFYSNTGQAISPGMKRRIRLGQYGFPNPEWSEVSEDAKQLIRLLLKTDPTERLTITQFMNHPWINQSMVVPQTPLHTARVLQEDKDHWDEVKEEMTSALATMRVDYDQVKIKDLKTSNNRLLNKRRKKQAGSSSASQGCNNQ
# B4: MAPK8(JNK1) (protein)
# chain: MSRSKRDNNFYSVEIGDSTFTVLKRYQNLKPIGSGAQGIVCAAYDAILERNVAIKKLSRPFQNQTHAKRAYRELVLMKCVNHKNIIGLLNVFTPQKSLEEFQDVYIVMELMDANLCQVIQMELDHERMSYLLYQMLCGIKHLHSAGIIHRDLKPSNIVVKSDCTLKILDFGLARTAGTSFMMTPYVVTRYYRAPEVILGMGYKENVDLWSVGCIMGEMVCHKILFPGRDYIDQWNKVIEQLGTPCPEFMKKLQPTVRTYVENRPKYAGYSFEKLFPDVLFPADSEHNKLKASQARDLLSKMLVIDASKRISVDEALQHPYINVWYDPSEAEAPPPKIPDKQLDEREHTIEEWKELIYKEVMDLEERTKNGVIRGQPSPLAQVQQ
# B5: MYLK2 (protein)
# chain: MATENGAVELGIQNPSTDKAPKGPTGERPLAAGKDPGPPDPKKAPDPPTLKKDAKAPASEKGDGTLAQPSTSSQGPKGEGDRGGGPAEGSAGPPAALPQQTATPETSVKKPKAEQGASGSQDPGKPRVGKKAAEGQAAARRGSPAFLHSPSCPAIISSSEKLLAKKPPSEASELTFEGVPMTHSPTDPRPAKAEEGKNILAESQKEVGEKTPGQAGQAKMQGDTSRGIEFQAVPSEKSEVGQALCLTAREEDCFQILDDCPPPPAPFPHRMVELRTGNVSSEFSMNSKEALGGGKFGAVCTCMEKATGLKLAAKVIKKQTPKDKEMVLLEIEVMNQLNHRNLIQLYAAIETPHEIVLFMEYIEGGELFERIVDEDYHLTEVDTMVFVRQICDGILFMHKMRVLHLDLKPENILCVNTTGHLVKIIDFGLARRYNPNEKLKVNFGTPEFLSPEVVNYDQISDKTDMWSMGVITYMLLSGLSPFLGDDDTETLNNVLSGNWYFDEETFEAVSDEAKDFVSNLIVKDQRARMNAAQCLAHPWLNNLAEKAKRCNRRLKSQILLKKYLMKRRWKKNFIAVSAANRFKKISSSGALMALGV
# B6: MAPK14(p38alpha) (protein)
# chain: MSQERPTFYRQELNKTIWEVPERYQNLSPVGSGAYGSVCAAFDTKTGLRVAVKKLSRPFQSIIHAKRTYRELRLLKHMKHENVIGLLDVFTPARSLEEFNDVYLVTHLMGADLNNIVKCQKLTDDHVQFLIYQILRGLKYIHSADIIHRDLKPSNLAVNEDCELKILDFGLARHTDDEMTGYVATRWYRAPEIMLNWMHYNQTVDIWSVGCIMAELLTGRTLFPGTDHINQLQQIMRLTGTPPAYLINRMPSHEARNYIQSLTQMPKMNFANVFIGANPLAVDLLEKMLVLDSDKRITAAQALAHAYFAQYHDPDDEPVADPYDQSFESRDLLIDEWKSLTYDEVISFVPPPLDQEEMES
# B7: MAPK13(p38delta) (protein)
# chain: MSLIRKKGFYKQDVNKTAWELPKTYVSPTHVGSGAYGSVCSAIDKRSGEKVAIKKLSRPFQSEIFAKRAYRELLLLKHMQHENVIGLLDVFTPASSLRNFYDFYLVMPFMQTDLQKIMGMEFSEEKIQYLVYQMLKGLKYIHSAGVVHRDLKPGNLAVNEDCELKILDFGLARHADAEMTGYVVTRWYRAPEVILSWMHYNQTVDIWSVGCIMAEMLTGKTLFKGKDYLDQLTQILKVTGVPGTEFVQKLNDKAAKSYIQSLPQTPRKDFTQLFPRASPQAADLLEKMLELDVDKRLTAAQALTHPFFEPFRDPEEETEAQQPFDDSLEHEKLTVDEWKQHIYKEIVNFSPIARKDSRRRSGMKL
# B8: MAPK3(ERK1) (protein)
# chain: MAAAAAQGGGGGEPRRTEGVGPGVPGEVEMVKGQPFDVGPRYTQLQYIGEGAYGMVSSAYDHVRKTRVAIKKISPFEHQTYCQRTLREIQILLRFRHENVIGIRDILRASTLEAMRDVYIVQDLMETDLYKLLKSQQLSNDHICYFLYQILRGLKYIHSANVLHRDLKPSNLLINTTCDLKICDFGLARIADPEHDHTGFLTEYVATRWYRAPEIMLNSKGYTKSIDIWSVGCILAEMLSNRPIFPGKHYLDQLNHILGILGSPSQEDLNCIINMKARNYLQSLPSKTKVAWAKLFPKSDSKALDLLDRMLTFNPNKRITVEEALAHPYLEQYYDPTDEPVAEEPFTFAMELDDLPKERLKELIFQETARFQPGVLEAP
# B9: MAPKAPK5(PRAK) (protein)
# chain: MSEESDMDKAIKETSILEEYSINWTQKLGAGISGPVRVCVKKSTQERFALKILLDRPKARNEVRLHMMCATHPNIVQIIEVFANSVQFPHESSPRARLLIVMEMMEGGELFHRISQHRHFTEKQASQVTKQIALALRHCHLLNIAHRDLKPENLLFKDNSLDAPVKLCDFGFAKIDQGDLMTPQFTPYYVAPQVLEAQRRHQKEKSGIIPTSPTPYTYNKSCDLWSLGVIIYVMLCGYPPFYSKHHSRTIPKDMRRKIMTGSFEFPEEEWSQISEMAKDVVRKLLKVKPEERLTIEGVLDHPWLNSTEALDNVLPSAQLMMDKAVVAGIQQAHAEQLANMRIQDLKVSLKPLHSVNNPILRKRKLLGTKPKDSVYIHDHENGAEDSNVALEKLRDVIAQCILPQAGENEDEKLNEVMQEAWKYNRECKLLRDTLQSFSWNGRGFTDKVDRLKLAEIVKQVIEEQTTSHESQ
# Biological target: T1, Bovine, dephosphorylated, Myelin Basic …
row,Protein,MBP Kinase Activity
1,B1,Weak
2,B2,Weak
3,B3,Strong
4,B4,Negative
5,B5,Negative
6,B6,Strong
7,B7,Weak
8,B8,Strong
9,B9,Strong

# From patent US20090099029
